From patent US20240209100A1 (DIAGONAL THERAPEUTICS, published 2024)
Values belong to the binder of their own block, whether it stands above or below them.

Target: T1, IL-18 receptor (IL-18Rα/IL-18Rβ) overexpressed on HEK-Blue IL-18 cells (Homo sapiens (Human), UniProt Q13478 19-541; O95256 20-599)
T1 sequence 1: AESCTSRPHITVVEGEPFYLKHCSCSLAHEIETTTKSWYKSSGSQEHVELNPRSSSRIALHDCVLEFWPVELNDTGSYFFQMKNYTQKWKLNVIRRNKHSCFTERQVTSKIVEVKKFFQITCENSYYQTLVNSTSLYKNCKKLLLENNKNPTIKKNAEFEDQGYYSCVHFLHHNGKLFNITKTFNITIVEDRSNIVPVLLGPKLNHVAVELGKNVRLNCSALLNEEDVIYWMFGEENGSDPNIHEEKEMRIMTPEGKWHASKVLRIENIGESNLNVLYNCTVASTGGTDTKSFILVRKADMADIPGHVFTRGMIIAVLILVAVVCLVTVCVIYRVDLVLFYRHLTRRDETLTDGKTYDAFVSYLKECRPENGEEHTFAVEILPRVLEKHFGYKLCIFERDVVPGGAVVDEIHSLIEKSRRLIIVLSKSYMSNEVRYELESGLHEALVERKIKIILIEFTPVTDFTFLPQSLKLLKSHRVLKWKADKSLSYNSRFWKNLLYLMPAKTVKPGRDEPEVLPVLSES
T1 sequence 2: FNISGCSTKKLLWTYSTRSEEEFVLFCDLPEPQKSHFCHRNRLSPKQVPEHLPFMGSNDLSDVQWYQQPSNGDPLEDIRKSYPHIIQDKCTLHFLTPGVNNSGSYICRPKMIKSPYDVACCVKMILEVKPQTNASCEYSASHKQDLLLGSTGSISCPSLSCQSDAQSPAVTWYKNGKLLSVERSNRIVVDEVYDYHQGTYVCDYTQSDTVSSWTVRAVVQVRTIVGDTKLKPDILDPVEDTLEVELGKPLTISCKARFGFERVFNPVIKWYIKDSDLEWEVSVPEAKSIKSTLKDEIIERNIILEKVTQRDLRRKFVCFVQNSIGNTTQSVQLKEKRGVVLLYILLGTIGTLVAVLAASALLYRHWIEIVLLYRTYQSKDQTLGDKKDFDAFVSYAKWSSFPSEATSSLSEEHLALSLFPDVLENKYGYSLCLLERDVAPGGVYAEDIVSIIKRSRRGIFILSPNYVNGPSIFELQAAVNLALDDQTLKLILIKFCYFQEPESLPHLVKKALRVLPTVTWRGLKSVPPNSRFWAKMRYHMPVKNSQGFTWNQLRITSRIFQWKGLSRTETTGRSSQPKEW
Assay: cell-based or functional assay

B3: DGL212 (bispecific antibody)
heavy 1: QVQLVESGGGLVQAGGSLRLSCAASGRTFSKHAMGWFRQAPGKEREFVAAIDWSGGSTYYADSVKGRFTISRDNAKNTVYLQMDSLKPEDTAVYYCAADSYTDYAQLWLPELESEYDYWGQGTLVTVSSDKTHTCPPCPAPEAAGAPSVFLFPPKPKDTLMISRTPEVTCVVVDVSHEDPEVKFNWYVDGVEVHNAKTKPREEQYNSTYRVVSVLTVLHQDWLNGKEYKCKVSNKALPAPIEKTISKAKGQPREPQVCTLPPSRDELTKNQVSLSCAVKGFYPSDIAVEWESNGQPENNYKTTPPVLDSDGSFFLVSKLTVDKSRWQQGNVFSCSVMHEALHNHYTQKSLSLSPGWSHPQFEK
heavy 2: not shown
HEK-Blue IL-18: Abs 405 at 100 nM: 1.4 Abs
HEK-Blue IL-18: Fold over Background: 6.2 fold

B5: DGL213 (bispecific antibody)
heavy 1: B3 heavy 1
heavy 2: QLQLVESGGGLVQAGGSLRLSCAASRSITFSHNVMGWYRQAPGKQRELVASIGSGGSTNYVDSVKGRATISRDNAKKTVYLQMNSLKPEDTAVYYCGVVVGVYRGSLGQGTLVTVSSCPPCPAPEAAGAPSVFLFPPKPKDTLMISRTPEVTCVVVDVSHEDPEVKFNWYVDGVEVHNAKTKPREEQYNSTYRVVSVLTVLHQDWLNGKEYKCKVSNKALPAPIEKTISKAKGQPREPQVYTLPPCRDELTKNQVSLWCLVKGFYPSDIAVEWESNGQPENNYKTTPPVLDSDGSFFLYSKLTVDKSRWQQGNVFSCSVMHEALHNHYTQKSLSLSPGEPEA
HEK-Blue IL-18: Abs 405 at 100 nM: 1.5 Abs
HEK-Blue IL-18: Fold over Background: 6.4 fold

B6: DGL214 (bispecific antibody)
heavy 1: B3 heavy 1
heavy 2: not shown
HEK-Blue IL-18: Abs 405 at 100 nM: 1.1 Abs
HEK-Blue IL-18: Fold over Background: 4.7 fold

B7: DGL215 (bispecific antibody)
heavy 1: B3 heavy 1
heavy 2: QLQLVESGGGLVQAGGSLRLSCAASRSITFSHNVMGWYRQAPGKQRELVASIGSGGSTNYVDSVKGRATISRDNAKKTVYLQMNSLKPEDTAVYYCGVVVGVYRGSLGQGTLVTVSSPLAPCPPCPAPEAAGAPSVFLFPPKPKDTLMISRTPEVTCVVVDVSHEDPEVKFNWYVDGVEVHNAKTKPREEQYNSTYRVVSVLTVLHQDWLNGKEYKCKVSNKALPAPIEKTISKAKGQPREPQVYTLPPCRDELTKNQVSLWCLVKGFYPSDIAVEWESNGQPENNYKTTPPVLDSDGSFFLYSKLTVDKSRWQQGNVFSCSVMHEALHNHYTQKSLSLSPGEPEA
HEK-Blue IL-18: Abs 405 at 100 nM: 1.4 Abs
HEK-Blue IL-18: Fold over Background: 6.1 fold

B9: DGL211 (bispecific antibody)
heavy 1: QVQLVESGGGLVQAGGSLRLSCAASGRTFSKHAMGWFRQAPGKEREFVAAIDWSGGSTYYADSVKGRFTISRDNAKNTVYLQMDSLKPEDTAVYYCAADSYTDYAQLWLPELESEYDYWGQGTLVTVSSEKSYGPPCPPCPAPEAAGAPSVFLFPPKPKDTLMISRTPEVTCVVVDVSHEDPEVKFNWYVDGVEVHNAKTKPREEQYNSTYRVVSVLTVLHQDWLNGKEYKCKVSNKALPAPIEKTISKAKGQPREPQVCTLPPSRDELTKNQVSLSCAVKGFYPSDIAVEWESNGQPENNYKTTPPVLDSDGSFFLVSKLTVDKSRWQQGNVFSCSVMHEALHNHYTQKSLSLSPGWSHPQFEK
heavy 2: QLQLVESGGGLVQAGGSLRLSCAASRSITFSHNVMGWYRQAPGKQRELVASIGSGGSTNYVDSVKGRATISRDNAKKTVYLQMNSLKPEDTAVYYCGVVVGVYRGSLGQGTLVTVSSEKSYGPPCPPCPAPEAAGAPSVFLFPPKPKDTLMISRTPEVTCVVVDVSHEDPEVKFNWYVDGVEVHNAKTKPREEQYNSTYRVVSVLTVLHQDWLNGKEYKCKVSNKALPAPIEKTISKAKGQPREPQVYTLPPCRDELTKNQVSLWCLVKGFYPSDIAVEWESNGQPENNYKTTPPVLDSDGSFFLYSKLTVDKSRWQQGNVFSCSVMHEALHNHYTQKSLSLSPGEPEA
HEK-Blue IL-18: Abs 405 at 100 nM: 1.5 Abs
HEK-Blue IL-18: Fold over Background: 6.7 fold

Next, values leading:

HEK-Blue IL-18: Abs 405 at 100 nM: 1.5 Abs
HEK-Blue IL-18: Fold over Background: 6.6 fold
B1: DGL220 (bispecific antibody)
heavy 1: QVQLVESGGGLVQAGGSLRLSCAASGRTFSKHAMGWFRQAPGKEREFVAAIDWSGGSTYYADSVKGRFTISRDNAKNTVYLQMDSLKPEDTAVYYCAADSYTDYAQLWLPELESEYDYWGQGTLVTVSSPLAPCPPCPAPEAAGAPSVFLFPPKPKDTLMISRTPEVTCVVVDVSHEDPEVKFNWYVDGVEVHNAKTKPREEQYNSTYRVVSVLTVLHQDWLNGKEYKCKVSNKALPAPIEKTISKAKGQPREPQVCTLPPSRDELTKNQVSLSCAVKGFYPSDIAVEWESNGQPENNYKTTPPVLDSDGSFFLVSKLTVDKSRWQQGNVFSCSVMHEALHNHYTQKSLSLSPGWSHPQFEK
heavy 2: not shown

HEK-Blue IL-18: Abs 405 at 100 nM: 1 Abs
HEK-Blue IL-18: Fold over Background: 4.4 fold
B2: DGL219 (bispecific antibody)
heavy 1: QVQLVESGGGLVQAGGSLRLSCAASGRTFSKHAMGWFRQAPGKEREFVAAIDWSGGSTYYADSVKGRFTISRDNAKNTVYLQMDSLKPEDTAVYYCAADSYTDYAQLWLPELESEYDYWGQGTLVTVSSPLAPDKTHTCPPCPAPEAAGAPSVFLFPPKPKDTLMISRTPEVTCVVVDVSHEDPEVKFNWYVDGVEVHNAKTKPREEQYNSTYRVVSVLTVLHQDWLNGKEYKCKVSNKALPAPIEKTISKAKGQPREPQVCTLPPSRDELTKNQVSLSCAVKGFYPSDIAVEWESNGQPENNYKTTPPVLDSDGSFFLVSKLTVDKSRWQQGNVFSCSVMHEALHNHYTQKSLSLSPGWSHPQFEK
heavy 2: not shown

HEK-Blue IL-18: Abs 405 at 100 nM: 0.8 Abs
HEK-Blue IL-18: Fold over Background: 3.4 fold
B4: DGL216 (bispecific antibody)
heavy 1: B3 heavy 1
heavy 2: QLQLVESGGGLVQAGGSLRLSCAASRSITFSHNVMGWYRQAPGKQRELVASIGSGGSTNYVDSVKGRATISRDNAKKTVYLQMNSLKPEDTAVYYCGVVVGVYRGSLGQGTLVTVSSGGGGSGGGGSGGGGSGGGGSCPPCPAPEAAGAPSVFLFPPKPKDTLMISRTPEVTCVVVDVSHEDPEVKFNWYVDGVEVHNAKTKPREEQYNSTYRVVSVLTVLHQDWLNGKEYKCKVSNKALPAPIEKTISKAKGQPREPQVYTLPPCRDELTKNQVSLWCLVKGFYPSDIAVEWESNGQPENNYKTTPPVLDSDGSFFLYSKLTVDKSRWQQGNVFSCSVMHEALHNHYTQKSLSLSPGEPEA

HEK-Blue IL-18: Abs 405 at 100 nM: 1.3 Abs
HEK-Blue IL-18: Fold over Background: 5.5 fold
B8: DGL218 (bispecific antibody)
heavy 1: QVQLVESGGGLVQAGGSLRLSCAASGRTFSKHAMGWFRQAPGKEREFVAAIDWSGGSTYYADSVKGRFTISRDNAKNTVYLQMDSLKPEDTAVYYCAADSYTDYAQLWLPELESEYDYWGQGTLVTVSSCPPCPAPEAAGAPSVFLFPPKPKDTLMISRTPEVTCVVVDVSHEDPEVKFNWYVDGVEVHNAKTKPREEQYNSTYRVVSVLTVLHQDWLNGKEYKCKVSNKALPAPIEKTISKAKGQPREPQVCTLPPSRDELTKNQVSLSCAVKGFYPSDIAVEWESNGQPENNYKTTPPVLDSDGSFFLVSKLTVDKSRWQQGNVFSCSVMHEALHNHYTQKSLSLSPGWSHPQFEK
heavy 2: not shown

HEK-Blue IL-18: Abs 405 at 100 nM: 1.3 Abs
HEK-Blue IL-18: Fold over Background: 5.6 fold
B10: DGL217 (bispecific antibody)
heavy 1: B3 heavy 1
heavy 2: B9 heavy 2
